What follows are binders tested against HCV-1 E1E2 (autologous strain) (Hepatitis C virus genotype 1a, strain …, UniProt P26664, strain) (assay: ELISA).

Binder	binding result
RM2-01 heavy-chain variant I51A (antibody, V domains shown) VH: QVQLVQSGAEVKKPGASVKLSCKASGFTFRIYAISWVRQAPGQGLEWMGEAVPLGGITNYAQNFQGRAAITADTSINTAYMELSSLRSDDTAVYYCARVRTALVGPREGIFDFWGQGVLVTVSS VL: DIQMTQSPSSLSASVGDRVSITCRASQTISTYLAWYQQKPGKVPKLLIYTASTLETGVPSRFSGSGSGTEFTLTISSLQPEDFATYYCQQHDSHPYSFGQGTKVEIK	binds
RM2-01 heavy-chain variant I56A (antibody, V domains shown) VH: QVQLVQSGAEVKKPGASVKLSCKASGFTFRIYAISWVRQAPGQGLEWMGEIVPLGGATNYAQNFQGRAAITADTSINTAYMELSSLRSDDTAVYYCARVRTALVGPREGIFDFWGQGVLVTVSS VL: DIQMTQSPSSLSASVGDRVSITCRASQTISTYLAWYQQKPGKVPKLLIYTASTLETGVPSRFSGSGSGTEFTLTISSLQPEDFATYYCQQHDSHPYSFGQGTKVEIK	binds
RM2-01 heavy-chain variant P52aA (antibody, V domains shown) VH: QVQLVQSGAEVKKPGASVKLSCKASGFTFRIYAISWVRQAPGQGLEWMGEIVALGGITNYAQNFQGRAAITADTSINTAYMELSSLRSDDTAVYYCARVRTALVGPREGIFDFWGQGVLVTVSS VL: DIQMTQSPSSLSASVGDRVSITCRASQTISTYLAWYQQKPGKVPKLLIYTASTLETGVPSRFSGSGSGTEFTLTISSLQPEDFATYYCQQHDSHPYSFGQGTKVEIK	binds
RM11-43 heavy-chain variant I52A (antibody, V domains shown) VH: QVQLVQSGAEVKKPGASVKLSCKASGFTFRIYAISWVRQAPGQGLEWMGEIAPLGGITNYAQKFQGRVTITADTSTSTAYMELSSLRSEDTAVYYCARGETKMITVLAGTTGGGLDSWGQGTLVTVSS VL: DIQMTQSPSSLSASVGDKVTITCHASQGISSWLAWYQQKPGKAPKPLIYAASSLQSGVPSRFSGGGSGADYTLTISSLQPEDFATYYCQQYDDLPRTFGQGTKVEIK	binds
RM11-43 heavy-chain variant I56A (antibody, V domains shown) VH: QVQLVQSGAEVKKPGASVKLSCKASGFTFRIYAISWVRQAPGQGLEWMGEIIPLGGATNYAQKFQGRVTITADTSTSTAYMELSSLRSEDTAVYYCARGETKMITVLAGTTGGGLDSWGQGTLVTVSS VL: DIQMTQSPSSLSASVGDKVTITCHASQGISSWLAWYQQKPGKAPKPLIYAASSLQSGVPSRFSGGGSGADYTLTISSLQPEDFATYYCQQYDDLPRTFGQGTKVEIK	binds
RM11-43 heavy-chain variant L53A (antibody, V domains shown) VH: QVQLVQSGAEVKKPGASVKLSCKASGFTFRIYAISWVRQAPGQGLEWMGEIIPAGGITNYAQKFQGRVTITADTSTSTAYMELSSLRSEDTAVYYCARGETKMITVLAGTTGGGLDSWGQGTLVTVSS VL: DIQMTQSPSSLSASVGDKVTITCHASQGISSWLAWYQQKPGKAPKPLIYAASSLQSGVPSRFSGGGSGADYTLTISSLQPEDFATYYCQQYDDLPRTFGQGTKVEIK	binds

From article PMC8046733 (Immunity, 2021)
